Molecular target: H3_(1-15)K4me3 peptide with an added C-terminal Tyr (UniProt P68431)
Experiment: ITC

Kd: 750 nM
Substance: Recombinant JARID1A_(PHD3) protein used for calorimetry (domain or fragment)

From article PMC2697266
